Legend:
cynomolgus CD3 [1] = molecular target: T1, cynomolgus CD3 (UniProt Q95LI5 22-198); test: FACS binding, HSC-F cells
T1 chain: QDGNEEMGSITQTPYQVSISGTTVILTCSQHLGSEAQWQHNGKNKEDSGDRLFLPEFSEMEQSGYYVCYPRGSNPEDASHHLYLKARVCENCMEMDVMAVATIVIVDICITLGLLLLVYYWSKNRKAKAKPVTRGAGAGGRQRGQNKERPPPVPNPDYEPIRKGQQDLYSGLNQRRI

human CD3 [2] = molecular target: T2, human CD3 (UniProt P07766 22-207); test: FACS binding, Jurkat cells
cynomolgus CD3 [3] = molecular target: T1, cynomolgus CD3; test: FACS binding, HSC-F cells; Fig 2B
human CD3 [4] = molecular target: T2, human CD3; test: FACS binding, Jurkat cells; Fig 1B
cynomolgus CD3 [5] = molecular target: T1, cynomolgus CD3; test: FACS binding, HSC-F cells
human CD3 [6] = molecular target: T2, human CD3; test: FACS binding, Jurkat cells; remark: listed apart in the source
cynomolgus CD3 [7] = molecular target: T1, cynomolgus CD3; test: FACS binding, HSC-F cells; Fig 2A
human CD3 [8] = molecular target: T2, human CD3; test: FACS binding, Jurkat cells; Fig 1A
cynomolgus CD3 [9] = molecular target: T1, cynomolgus CD3; test: FACS binding, HSC-F cells; second row printed H4L1; graph legend indicates H4L3

T2 sequence (P07766 22-207): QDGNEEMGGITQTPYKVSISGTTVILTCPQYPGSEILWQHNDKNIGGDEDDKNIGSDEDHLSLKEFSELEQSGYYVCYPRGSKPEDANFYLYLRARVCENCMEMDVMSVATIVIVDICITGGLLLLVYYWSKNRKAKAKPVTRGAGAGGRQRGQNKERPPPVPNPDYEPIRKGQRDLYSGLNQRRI

B1: bsIgG1 huCD3-H3L1×HER2-LFLEDA (bispecific antibody, V domains shown)
VH 1: EVKLVESGGGLVKPGRSLRLSCAASGFTFNTYAMNWVRQAPGKGLEWVARIRSKYNNYATYYADSVKDRFTISRDDSKSILYLQMNSLKTEDTAMYYCVRHGNFGNSYVSWFAYWGQGTLVTVSS
VL 1: not shown
VH 2: QVQLVQSGAEVKKPGASVKVSCKASGYTFTNYGISWVRQAPGQGLEWMGWLSAYSGNTIYAQKLQGRVTMTTDTSTTTAYMELRSLRSDDTAVYYCARDRIVVRPDYFDYWGQGTLVTVSS
VL 2: EIVLTQSPATLSLSPGERATLSCRASQSVSSYLAWYQQKPGQAPRLLIYDASNRATGIPARFSGSGSGTDFTLTISSLEPEDFAVYYCQQRSNWPRTFGQGTKVEIK
EC50 (cynomolgus CD3 [1]): 0.28 µg/mL
EC50 (human CD3 [2]): 0.64 µg/mL
EC50 (cynomolgus CD3 [3]): 3.54 µg/mL
EC50 (human CD3 [4]): 0.28 µg/mL

B2: IgG1-CD3-LFLEDA (antibody, V domains shown)
VH: EVKLLESGGGLVQPKGSLKLSCAASGFTFNTYAMNWVRQAPGKGLEWVARIRSKYNNYATYYADSVKDRFTISRDDSQSILYLQMNNLKTEDTAMYYCVRHGNFGNSYVSWFAYWGQGTLVTVSA
VL: QAVVTQESALTTSPGETVTLTCRSSTGAVTTSNYANWVQEKPDHLFTGLIGGTNKRAPGVPARFSGSLIGDKAALTITGAQTEDEAIYFCALWYSNLWVFGGGTKLTVL
EC50 (cynomolgus CD3 [5]): 0.06 µg/mL
EC50 (cynomolgus CD3 [1]): 0.06 µg/mL
EC50 (human CD3 [6]): 0.27 µg/mL
EC50 (human CD3 [2]): 0.18 µg/mL
EC50 (cynomolgus CD3 [7]): 0.3 µg/mL
EC50 (cynomolgus CD3 [3]): 0.47 µg/mL
EC50 (human CD3 [8]): 0.08 µg/mL
EC50 (human CD3 [4]): 0.07 µg/mL

B3: bsIgG1-huCD3-H4L3×HER2-LFLEDA (bispecific antibody, V domains shown)
VH 1: EVKLVESGGGLVKPGRSLRLSCAASGFTFNTYAMNWVRQAPGKGLEWVARIRSKYNNYATYYADSVKDRFTISRDDSKSILYLQMNSLKTEDTAMYYCVRHGNFGNSYVSWFAYWGQGTMVTVSS
VL 1: QAVVTQEPSFSVSPGGTVTLTCRSSTGAVTTSNYANWVQQTPGQAFRGLIGGTNKRAPGVPARFSGSILGNKAALTITGAQADDESDYYCALWYSNLWVFGGGTKLTVL
VH 2: QVQLVQSGAEVKKPGASVKVSCKASGYTFTNYGISWVRQAPGQGLEWMGWLSAYSGNTIYAQKLQGRVTMTTDTSTTTAYMELRSLRSDDTAVYYCARDRIVVRPDYFDYWGQGTLVTVSS
VL 2: EIVLTQSPATLSLSPGERATLSCRASQSVSSYLAWYQQKPGQAPRLLIYDASNRATGIPARFSGSGSGTDFTLTISSLEPEDFAVYYCQQRSNWPRTFGQGTKVEIK
EC50 (human CD3 [2]): 0.59 µg/mL
EC50 (cynomolgus CD3 [9]): 0.24 µg/mL
